B1: v37575 (codrituzumab) (antibody, human IgG1, kappa, V domains shown)
VH: QVQLVQSGAEVKKPGASVKVSCKASGYTFTDYEMHWVRQAPGQGLEWMGALDPKTGDTAYSQKFKGRVTLTADKSTSTAYMELSSLTSEDTAVYYCTRFYSYTYWGQGTLVTVSS
VL: DVVMTQSPLSLPVTPGEPASISCRSSQSLVHSNRNTYLHWYLQKPGQSPQLLIYKVSNRFSGVPDRFSGSGSGTDFTLKISRVEAEDVGVYYCSQNTHVPPTFGQGTKLEIKR
notes: also called GC33; RG-7686
B2: v36180 (M3-H1L1) (antibody, human IgG1, kappa, V domains shown)
VH: EVQLVQSGAEVKKPGSSVKVSCKASGYTFTDYEMHWVRQAPGQGLEWIGAIDPETGDTAYNQKFKGRATLTADKSTSTAYMELSSLRSEDTAVYYCTRYFSFAYWGQGTLVTVSS
VL: DVQMTQSPSSVSASVGDRVTITCRSSQSLRHSNGNTYLQWYQQKPGKAPKLLIYKVSNRFSGVPSRFSGSGSGTDFTLTISSLQPEDFATYFCYQSKHVPYTFGQGTKVEIKR
notes: humanized full-size IgG1 (IGHG1*01)/kappa antibody; heavy chain ends at G446 (EU); also called M3-HIL1
B3: v37574 (M3-H18L6) (antibody, human IgG1, kappa)
heavy: not shown
light: EIVLTQSPATLSLSPGERATISCRSSQSLRHSNGNTYLQWYQQKPGQAPRLLIYKVSNRFSGVPARFSGSGSGTDFTLTISSLEPEDFAVYFCYQSKHVPYTFGGGTKVEIKRTVAAPSVFIFPPSDEQLKSGTASVVCLLNNFYPREAKVQWKVDNALQSGNSQESVTEQDSKDSTYSLSSTLTLSKADYEKHKVYACEVTHQGLSSPVTKSFNRGEC
notes: humanized full-size IgG1 (IGHG1*01)/kappa antibody without heavy chain C-terminal lysine
B4: v38592-MC-GGFG-AM-Compound 139, DAR 4 (antibody, human IgG1, kappa)
heavy: not shown
light: B3 light
modifications: MC-GGFG-AM-Compound 139 drug-linker on reduced cysteines, sites not stated; MC-GGFG-AM-Compound 139 drug-linker on reduced cysteines, sites not stated; DAR 4 for the whole antibody
notes: antibody-drug conjugate
B5: v38592-MC-GGFG-AM-Compound 139, DAR 8 (antibody, human IgG1, kappa)
heavy: not shown
light: B3 light
modifications: MC-GGFG-AM-Compound 139 drug-linker on reduced cysteines, sites not stated; MC-GGFG-AM-Compound 139 drug-linker on reduced cysteines, sites not stated; DAR 8 for the whole antibody
notes: antibody-drug conjugate

Experiments:
human GPC3 on cells [1] = molecular target: T1, human GPC3 on cells (human, UniProt P51654 25-554); experiment: flow cytometry on JHH-7 cells (GPC3-high), 24 h at 4 C, anti-human IgG Fc AF647
T1 construct: GPI-anchored protein on transfected CHO-S cells, on human tumor cell lines or on HEK293T cells; the cell is named under assay; also called human GPC3 on CHO-S transfected cells; HuGPC3-CHO
Description: (§1) Briefly, cells were seeded at 50,000 cells/well in V-bottom 96-well plates and treated with antibody for 24 hours at 4° C. to prevent internalization. […] Following incubation and washing, fluorescence was detected by flow cytometry on a BD LSRFortessa™ Cell Analyzer (BD Biosciences, Franklin Lake, NJ) with 1,000 minimum events collected per well. AF647/APC-A GeoMean (fluorescence signal geometric mean, proportional to anti-Human AF647 binding) in live cell population was plotted against antibody concentration using GraphPad Prism Version 9 (GraphPad Software, San Diego, CA). The Bmax, Curve Hill Slope (h) and Kd values were derived from the “Specific binding with Hill slope” nonlinear regression curve fit in GraphPad Prism Version 9.

[2] = molecular target: KLH (Sigma-Aldrich, H8283); experiment: NS-ELISA, plate coated with KLH, antibody at 100 nM
Description: 50 μL each of insulin, KLH, dsDNA and ssDNA were added to a 96 well plate, followed by the incubation at 37° C. for 2 h. The coating materials were removed, and the plate was blocked with 200 μL of Gibco™ PBS pH7.4, 0.1% Tween®20, and incubated for 1 h at room temperature with shaking at 200 rpm. The plate was washed 3 times with Gibco™ PBS pH7.4, 0.1% Tween 20. 50 μL of each mAb at 100 nM (15 mg/mL) in Gibco™ PBS pH 7.4, 0.1% Tween®20 was added in duplicate to the wells and incubated for 1 h at room temperature with shaking at 200 rpm. Plates were washed three times with Gibco™ PBS pH7.4, 0.1% Tween 20, and 50 μL of 50 ng/mL anti-human IgG HRP (Thermofisher Scientific©, H₁₀₃₀₇) was added to each well. Plates were incubated for 1 h at room temperature, with shaking at 200 rpm. The plate was washed three times with Gibco™ PBS pH7.4, 0.1% Tween 20, and 100 μL of TMB substrate (Cell Signaling Technology©, 7004P6) added to each well. […] Binding scores were calculated as the ratio of the ELISA signal of the antibody to the signal of a well containing buffer instead of the primary antibody. The cutoffs considered for each binding molecule (ssDNA. KLH, Insulin, dsDNA and Heparin) were internally calculated.

human GPC3 on cells [3] = molecular target: T1, human GPC3 on cells; experiment: flow cytometry, JHH-7 cells; apparent Kd
Description: as §1

[4] = molecular target: T2, recombinant human GPC3 (ACROBiosystems) (human, UniProt P51654 25-559); experiment: SPR
T2 construct: bought antigen of the SPR assays, SEC purified; also called huGPC3; hGPC3

human GPC3 on cells [5] = molecular target: T1, human GPC3 on cells; experiment: flow cytometry, HepG2 cells
Description: as §1

human GPC3 on cells [6] = molecular target: T1, human GPC3 on cells; experiment: flow cytometry, CHO-S cells transfected with human GPC3; apparent Kd
Description: (§2) Briefly, CHO—S cells were transiently transfected for −24 hours with a pTT5-based expression plasmid encoding human GPC3 or cynomolgus monkey GPC3, 0.5 μg DNA per 1 million cells, using the Neon™ Transfection System (Thermo Fisher Scientific Corp., Waltham, MA), to transiently express human or cynomolgus monkey GPC3. Following transfection, cells were seeded at 50,000 cells/well in V-bottom 96-well plates and treated with antibody for 24 hours at 4° C. to prevent internalization. […] Following incubation and washing, fluorescence was detected by flow cytometry on a BD LSRFortessa™ Cell Analyzer (BD Biosciences, Franklin Lake, NJ) with 1,000 minimum events collected per well. AF647/APC-A GeoMean (fluorescence signal geometric mean, proportional to anti-Human AF647 binding) in live cell population was plotted against antibody concentration using GraphPad Prism Version 9 (GraphPad Software, San Diego, CA). The Bmax and Kd values were derived from the “Specific binding with Hill slope” nonlinear regression curve fit in GraphPad Prism Version 9.

human GPC3 on cells [7] = molecular target: T1, human GPC3 on cells; experiment: flow cytometry, JHH-7 cells
Description: as §1

[8] = molecular target: T3, cynomolgus monkey GPC3 on CHO-S transfected cells (cynomolgus monkey, UniProt A5A6P7 25-554 (Pan troglodytes entry)); experiment: flow cytometry, CHO-S cells transfected with cynomolgus monkey GPC3; apparent Kd
T3 construct: transient expression from a pTT5-based plasmid; also called CHO-S Cyno GPC3; CynoGPC3-CHO
Description: as §2

[9] = molecular target: T2, recombinant human GPC3 (ACROBiosystems); experiment: SPR; Kd on huGPC3 over Kd on cynoGPC3
Description: (§3) Antigens: recombinant human and cynomolgus GPC3 was purchased from ACROBiosystems (Newark, DE) and SEC purified on a Superdex 200 10/300 GL column (Cytiva) in PBST running buffer at 0.8 mL/min.
(§4) Screening of the antibodies for binding to GPC3 antigen was conducted via anti-Fc capture of antibodies, followed by the injection of five concentrations of GPC3. The anti-Fc surface was prepared on a CM5 Series S sensor chip by standard amine coupling methods as described by the manufacturer (Cytiva Life Sciences, Mississauga, ON, Canada). […] Approximately 500-600 RUs of each antibody (1-3 μg/mL) were captured on the goat anti-human IgG surface by injecting at 10 μL/min for 60s. Using single-cycle kinetics, five concentrations of a two-fold dilution series of human or cynomolgus GPC3 starting at 40 nM (or 20 nM) with a blank buffer control were injected at 40 μL/min for 180s of contact time, followed by 180 s (or 300 s) dissociation phase, resulting in sensorgrams with a buffer blank reference. The anti-Fc surface was regenerated to prepare for the next injection cycle by one pulse of 10 mM glycine/HCl pH 1.5 for 180 s at 40 μL/min. Blank-subtracted sensorgrams were analyzed using Biacore™ T200 Evaluation Software v3.0. The blank-subtracted sensorgrams were then fit to the 1:1 Langmuir binding model.

[10] = molecular target: T4, recombinant cynomolgus GPC3 (ACROBiosystems) (cynomolgus monkey, UniProt A5A6P7 25-559 (Pan troglodytes entry), limits assumed); experiment: SPR, antibody captured on anti-Fc, GPC3 injected, 1:1 fit
T4 construct: bought antigen of the SPR assays; also called cynoGPC3
Description: as §3, §4

[11] = molecular target: T2, recombinant human GPC3 (ACROBiosystems); experiment: as above
Description: as §3, §4

human GPC3 on cells [12] = molecular target: T1, human GPC3 on cells; experiment: flow cytometry, HepG2 cells; apparent Kd
Description: as §1

human GPC3 on cells [13] = molecular target: T1, human GPC3 on cells; experiment: flow cytometry on HepG2 cells (GPC3-high), 24 h at 4 C, anti-human IgG Fc AF647
Description: as §1

human GPC3 on cells [14] = molecular target: T1, human GPC3 on cells; experiment: cell-based or functional assay
human GPC3 on cells [15] = molecular target: T1, human GPC3 on cells; experiment: flow cytometry on JHH-5 cells (GPC3-mid), 24 h at 4 C, anti-human IgG Fc AF647
Description: (§5) Cell lines investigated included GPC3-hi HepG2 and JHH-7 cells, GPC3-mid JHH-5 cells, as well as GPC3-negative SNU-601 cells.
as §1

human GPC3 on cells [16] = molecular target: T1, human GPC3 on cells; experiment: flow cytometry on HepG2 cells (GPC3-high), 24 h at 4 C, anti-human IgG Fc AF647; remark: listed apart in the source
Description: as §5, §1

human GPC3 on cells [17] = molecular target: T1, human GPC3 on cells; experiment: flow cytometry on JHH-7 cells (GPC3-high), 24 h at 4 C, anti-human IgG Fc AF647; remark: listed apart in the source
Description: as §5, §1

human GPC3 on cells [18] = molecular target: T1, human GPC3 on cells; experiment: flow cytometry on CHO-S cells transiently transfected with human GPC3, 24 h at 4 C, anti-human IgG Fc AF647
Description: as §2

| Binder | EC50 (read off the curve) (human GPC3 on cells [1]) | NS-ELISA binding score [2] | Kd (human GPC3 on cells [3]) | Bmax (human GPC3 on cells [5]) | Kd (human GPC3 on cells [6]) | Bmax (human GPC3 on cells [7]) | Kd [8] | Fold difference (hu/cyno) [9] | Kd [10] | Kd [11] | Kd (human GPC3 on cells [12]) | EC50 (read off the curve) (human GPC3 on cells [13]) | internalized fluorescence, fold increase over palivizumab, Hep G2, 5 hours, 10 nM (human GPC3 on cells [14]) | internalized fluorescence, fold increase over palivizumab, Hep G2, 24 hours, 10 nM (human GPC3 on cells [14]) | internalized fluorescence, fold increase over palivizumab, JHH-7, 5 hours, 10 nM (human GPC3 on cells [14]) | internalized fluorescence, fold increase over palivizumab, JHH-7, 24 hours, 10 nM (human GPC3 on cells [14]) | EC50 (read off the curve) (human GPC3 on cells [15]) | EC50 (read off the curve) (human GPC3 on cells [16]) | EC50 (read off the curve) (human GPC3 on cells [17]) | also measured |
| --- | --- | --- | --- | --- | --- | --- | --- | --- | --- | --- | --- | --- | --- | --- | --- | --- | --- | --- | --- | --- |
| B1 | ~0.3 nM | 1.11 ratio to buffer well | 0.26 nM | 42300 | 1.23 nM | 9000 | 0.98 nM | 1 fold | 0.91 nM | 0.91 nM | 1.2 nM | ~1 nM | 14.4 fold | 57.2 fold | 8.5 fold | 46.7 fold |  |  |  | fold higher affinity than M3-H18L6 [4]: ~10 fold |
| B2 | ~0.3 nM | 5.45 ratio to buffer well | 0.25 nM | 40000 |  | 9340 |  | 1.1 fold | 9.67 nM | 10.5 nM | 0.91 nM | ~0.9 nM | 17 fold | 66.2 fold | 8.6 fold | 46.4 fold |  |  |  |  |
| B3 | ~0.2 nM | 0.91 ratio to buffer well | 0.22 nM | 33900 | 0.53 nM | 8520 | 0.38 nM |  | 11.1 nM | 11.1 nM | 1.1 nM | ~0.7 nM |  |  |  |  | ~0.2 nM |  |  |  |
| B4 |  |  |  |  |  |  |  |  |  |  |  |  |  |  |  |  | ~0.4 nM | ~9 nM | ~0.9 nM | EC50 (read off the curve) (human GPC3 on cells [18]): ~0.3 nM |
| B5 |  |  |  |  |  |  |  |  |  |  |  |  |  |  |  |  |  | ~7 nM | ~0.8 nM |  |

Source: patent publication US20250295799A1 (Zymeworks, published 2025)
